Earlier results on one substance are cited in article PMC10215522.

The data set concerns the target TFPI2 (Homo sapiens) (UniProt P48307).
UniProt P48307, sequence (P48307 23-235): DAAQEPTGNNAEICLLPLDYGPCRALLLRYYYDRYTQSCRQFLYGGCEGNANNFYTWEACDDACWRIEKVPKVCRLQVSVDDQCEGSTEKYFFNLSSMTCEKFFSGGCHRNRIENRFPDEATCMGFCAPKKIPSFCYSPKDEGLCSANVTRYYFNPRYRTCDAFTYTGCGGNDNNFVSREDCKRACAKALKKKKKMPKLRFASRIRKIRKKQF

Consider gC1qR (from UniProt Q07021), for which the dissociation constant (Kd) was 70 nM.
